Sequences and labels used below:
B1: Ac-CQTWQCYWRTNG-[AEA]-[(D)-Lys]-NH2 (peptide)
peptide: Ac-CQTWQCYWRTNG[AEA][dK]-NH2
modifications: disulfide 1-6
SMILES: CC(=O)N[C@H]1CSSC[C@@H](C(=O)N[C@@H](Cc2ccc(O)cc2)C(=O)N[C@@H](Cc2c[nH]c3ccccc23)C(=O)N[C@@H](CCCNC(=N)N)C(=O)N[C@H](C(=O)N[C@@H](CC(N)=O)C(=O)NCC(=O)NCCOCC(=O)N[C@H](CCCCN)C(N)=O)[C@@H](C)O)NC(=O)[C@H](CCC(N)=O)NC(=O)[C@H](Cc2c[nH]c3ccccc23)NC(=O)[C@H]([C@@H](C)O)NC(=O)[C@H](CCC(N)=O)NC1=O
B2: Ac-CQTWVCYWRENG-[AEA]-[(D)-Lys]-NH2 (peptide)
peptide: Ac-CQTWVCYWRENG[AEA][dK]-NH2
modifications: disulfide 1-6
SMILES: CC(=O)N[C@H]1CSSC[C@@H](C(=O)N[C@@H](Cc2ccc(O)cc2)C(=O)N[C@@H](Cc2c[nH]c3ccccc23)C(=O)N[C@@H](CCCNC(=N)N)C(=O)N[C@@H](CCC(=O)O)C(=O)N[C@@H](CC(N)=O)C(=O)NCC(=O)NCCOCC(=O)N[C@H](CCCCN)C(N)=O)NC(=O)[C@H](C(C)C)NC(=O)[C@H](Cc2c[nH]c3ccccc23)NC(=O)[C@H]([C@@H](C)O)NC(=O)[C@H](CCC(N)=O)NC1=O
B3: Ac-CQTWVCYWRENG-[AEA]-[(D)-Lys]-NH2 (peptide)
peptide: Ac-CQTWVCYWRENG[AEA][dK]-NH2
modifications: disulfide 1-6
SMILES: CC(=O)N[C@H]1CSSC[C@@H](C(=O)N[C@@H](Cc2ccc(O)cc2)C(=O)N[C@@H](Cc2c[nH]c3ccccc23)C(=O)N[C@@H](CCCNC(=N)N)C(=O)N[C@@H](CCC(=O)O)C(=O)N[C@@H](CC(N)=O)C(=O)NCC(=O)NCCOCC(=O)N[C@H](CCCCN)C(N)=O)NC(=O)[C@H](C(C)C)NC(=O)[C@H](Cc2c[nH]c3ccccc23)NC(=O)[C@H]([C@@H](C)O)NC(=O)[C@H](CCC(N)=O)NC1=O
B4: Ac-CRDWQCYWHKFG-[AEP]-[(D)Lys]-OH (peptide)
peptide: Ac-CRDWQCYWHKFG[PEG1][dK]-OH
modifications: disulfide 1-6
SMILES: CC(=O)N[C@H]1CSSC[C@@H](C(=O)N[C@@H](Cc2ccc(O)cc2)C(=O)N[C@@H](Cc2c[nH]c3ccccc23)C(=O)N[C@@H](Cc2c[nH]cn2)C(=O)N[C@@H](CCCCN)C(=O)N[C@@H](Cc2ccccc2)C(=O)NCC(=O)NCCOCCC(=O)N[C@H](CCCCN)C(=O)O)NC(=O)[C@H](CCC(N)=O)NC(=O)[C@H](Cc2c[nH]c3ccccc23)NC(=O)[C@H](CC(=O)O)NC(=O)[C@H](CCCNC(=N)N)NC1=O
B5: Ac-CQTWQCYWRTNG-[AEA]-[(D)-Lys]-NH2 (peptide)
peptide: Ac-CQTWQCYWRTNG[AEA][dK]-NH2
modifications: disulfide 1-6
SMILES: CC(=O)N[C@H]1CSSC[C@@H](C(=O)N[C@@H](Cc2ccc(O)cc2)C(=O)N[C@@H](Cc2c[nH]c3ccccc23)C(=O)N[C@@H](CCCNC(=N)N)C(=O)N[C@H](C(=O)N[C@@H](CC(N)=O)C(=O)NCC(=O)NCCOCC(=O)N[C@H](CCCCN)C(N)=O)[C@@H](C)O)NC(=O)[C@H](CCC(N)=O)NC(=O)[C@H](Cc2c[nH]c3ccccc23)NC(=O)[C@H]([C@@H](C)O)NC(=O)[C@H](CCC(N)=O)NC1=O

Bridges are numbered along the chain shown (N, C = ends). [ ]: non-standard residue; d: D form. PEG1 = NCCOCCC(=O)O; AEA = NCCOCC(=O)O

Experimental findings from patent US20190300590A1 (PROTAGONIST THERAPEUTICS, published 2019) are described below.

The assay deals with T1, IL23R_huFC (human, UniProt Q5VWK5 24-353).
T1 sequence (looked up): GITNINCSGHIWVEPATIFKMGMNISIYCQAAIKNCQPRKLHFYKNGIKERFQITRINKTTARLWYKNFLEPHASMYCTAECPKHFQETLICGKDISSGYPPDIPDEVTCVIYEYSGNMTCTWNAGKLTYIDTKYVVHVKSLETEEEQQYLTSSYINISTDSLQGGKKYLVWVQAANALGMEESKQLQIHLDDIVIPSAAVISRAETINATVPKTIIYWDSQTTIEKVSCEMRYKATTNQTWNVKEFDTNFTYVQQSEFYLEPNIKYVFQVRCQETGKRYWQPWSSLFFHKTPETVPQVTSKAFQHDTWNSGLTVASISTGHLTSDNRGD
Kind of assay: IL23-IL23R competitive ELISA.
In general, IC50 refers to the concentration needed to halve the response being measured. As to B1, the 50% inhibitory concentration (IC50) was < 500 nM. With B2 the figure was < 500 nM; with B3, < 500 nM. Turning to B4, the IC50 was < 500 nM. As for Ac-CRTWQCYWRKFG[AEA][dK]-NH2 (disulfide 1-6 (inferred)) [Ac-CRTWQCYWRKFG-[AEA]-[(D)-Lys]-NH2], the IC50 was < 500 nM.

On to B5, for which the IC50 was < 500 nM. Regarding Ac-CADWVCYWHTYG-NH2 (disulfide 1-6 (inferred)) [Ac-CADWVCYWHTYG-NH2], the IC50 is < 500 nM. Ac-CTDWVCYWHTFG-NH2 (disulfide 1-6 (inferred)) [Ac-CTDWVCYWHTFG-NH2]: the IC50 was < 500 nM.

For Ac-CTTWTCYWHQYG-NH2 (disulfide 1-6 (inferred)) [Ac-CTTWTCYWHQYG-NH2], the IC50 was < 500 nM.
